This is an account of results in patent US20150224182A1 (UNIVERSITY OF VIRGINIA PATENT FOUNDATION, published 2015).

Non-standard residues stand in square brackets, D forms with d. No end group written: not given here. pT = C[C@@H](OP(=O)(O)O)[C@H](N)C(=O)O; pS = N[C@@H](COP(=O)(O)O)C(=O)O

The target in assay [1] is T1, HLA-A*0201 (human).
T1 construct: also called HLA-A2
The assay is described as follows: listed as presented with class I MHC on cancer cells (leukemia or transformed B cells).

Assay [2] addresses T2, HLA-B*0702 (human).
T2 construct: also called HLA-B7
The assay is described as follows: HLA-B7 eluate MS; ALL1; 1 means <1 copy/cell.
Description: (§1) The mixture was subjected to centrifugation and the resulting supernatant was passed over protein A sepharose pre-loaded with the HLA-A2-specific antibody BB7.2 or HLA-B7-specific antibody ME1. Peptides were eluted from the purified class I MHC molecules with 10% acetic acid.

For assay [3], the target named is T2, HLA-B*0702. The assay is described as follows: HLA-B7 eluate MS; AML1; 1 means <1 copy/cell.
Description: as §1
Assay [4] concerns the target T3, HLA B*0702 (human).
T3 construct: Class I MHC molecule of the cells from which the associated phosphopeptides were detected; also called HLA-B7
The assay is described as follows: MS of peptides eluted from HLA; L/M column: L.

For the molecule RTY[pS]GPMNKV (From POF1B, UniProt Q8WVV4) [RTYsGPMNKV], the binding result in assay [1] is given as “binds”.

VLMKSPSPAL (also: one of S5 or S7 phosphorylated, From YTHDC2, UniProt Q9H6S0) [VLMK(sPs)PAL]: in assay [1], the binding result is reported as “binds”.

B1: GLLsPARLYAI (peptide)
peptide: GLL[pS]PARLYAI
notes: From Leucine rich PPR-motif containing protein, UniProt P42704
In the case of B1, the binding result in assay [1] is listed as “binds”.

Take TPAQPQRR[pS]L [TPX2 phosphopeptide TPAQPQRRsL]: the binding result in assay [2] is reported as “binds”.

For the molecule RPV[pS]PGKDI [HIVEP2 phosphopeptide RPVsPGKDI], in assay [2], the binding result is “binds”.

Turning to RPR[pS]LEVTI (also called Pyrin) [MEFV phosphopeptide RPRsLEVTI], the binding result in assay [3] was “binds”.

Regarding KLD[pS]PRVTV (From Protein FAM86A, UniProt Q96G04) [KLDsPRVTV], in assay [1], the binding result is given as “binds”.

For the molecule KPQTRGK[pT]F (also called Carabin) [TBC1D10C phosphopeptide KPQTRGKtF], in assay [2], the binding result is listed as “binds”.

B2: KIFsGVFVKV (peptide)
peptide: KIF[pS]GVFVKV
notes: From 60S ribosomal protein L7-like 1, UniProt Q6DKI1
Turning to B2, the binding result in assay [1] is on record as “binds”.

Consider SPA[pS]PKISL [ATXN2L phosphopeptide SPAsPKISL], for which the binding result in assay [2] was “binds”.

As for TPI[pS]PGRASGM [RUNX1 phosphopeptide TPIsPGRASGM], in assay [2], the binding result is “binds”.

With RSL[pS]PGGAA [RBM15 phosphopeptide RSLsPGGAA], the binding result in assay [2] is “binds”.

On to YQR[pS]FDEVEGV [YQRsFDEVEGV], for which the binding result in assay [4] is recorded as “binds”.

For KLLQFYP[pS]L [KLLQFYPsL], the binding result in assay [1] is reported as “binds”.

With RPW[pS]PAVSA [SKI phosphopeptide RPWsPAVSA], in assay [2], the binding result is “binds”.

On to RPA[pS]ARAQPGL [C6orf64 phosphopeptide RPAsARAQPGL], for which, in assay [2], the binding result is on record as “binds”.

Consider RPA[pT]GGPGVA [phosphopeptide RPAtGGPGVA (no gene name in Table 7; Unknown protein)], for which the binding result in assay [2] is given as “binds”.

In the case of RPR[pS]PGSNSKV [GTF2IRD1 phosphopeptide RPRsPGSNSKV], in assay [3], the binding result is listed as “binds”.

For RSG[pS]LERKV (also called C20orf117) [KIAA0889 phosphopeptide RSGsLERKV], in assay [2], the binding result was “binds”.

Regarding SPEKAGRR[pS]SL [CCDC88B phosphopeptide SPEKAGRRsSL], the binding result in assay [3] is recorded as “binds”.

B3: KMYsEIDIKV (peptide)
peptide: KMY[pS]EIDIKV
notes: From 116 kDa U5 small nuclear ribonucleoprotein component, UniProt Q15029
Take B3: in assay [1], the binding result is listed as “binds”.

Take RPI[pT]PPRNSA [PPP1CA phosphopeptide RPItPPRNSA]: the binding result in assay [2] is on record as “binds”.

Take AMLGSK[pS]PDPYRL (From Protein SON, UniProt P18583) [AMLGSKsPDPYRL]: the binding result in assay [1] is “binds”.

SPR[pS]PGKPM [phosphopeptide SPRsPGKPM (no gene name in Table 7; no database hit)]: the binding result in assay [2] was “binds”.

Take SPGLARKR[pS]L [ZFP106 phosphopeptide SPGLARKRsL]: in assay [3], the binding result is on record as “binds”.

B4: RLAsLNAEAL (peptide)
peptide: RLA[pS]LNAEAL
notes: From Bromo adjacent homology domain-containing 1 protein, UniProt Q8TBE0
With B4, the binding result in assay [1] is recorded as “binds”.

B5: RPR(sLss)PTVTL (peptide)
peptide: RPRSLSSPTVTL
modifications: also: one of Ser4, Ser6, Ser7 phosphorylated
notes: From E3 ubiquitin-protein ligase NEDD4-like, UniProt Q96PU5
For B5, the binding result in assay [1] was “binds”.

On to KPPYRSH[pS]L [CCDC45 phosphopeptide KPPYRSHsL], for which, in assay [3], the binding result is recorded as “binds”.

For RQA[pS]LSISV (From Protein kinase 2D, UniProt A0JLT6) [RQAsLSISV], the binding result in assay [1] is listed as “binds”.

On to RP[pS]SPALYF [TSC22D4 phosphopeptide RPsSPALYF], for which, in assay [2], the binding result is on record as “binds”.

As for KVA[pS]LLHQV [KVAsLLHQV], the binding result in assay [1] is given as “binds”.

LPA[pS]PRARL [MAP7D1 phosphopeptide LPAsPRARL]: in assay [3], the binding result was “binds”.

Turning to VPR[pS]PKHAHSSSL (also called Supervillin) [SVIL phosphopeptide VPRsPKHAHSSSL], the binding result in assay [3] was “binds”.

B6: YQLsPTKLPSI (peptide)
peptide: YQL[pS]PTKLPSI
notes: From Nibrin/cell cycle regulatory protein p95, UniProt O60934
For the molecule B6, the binding result in assay [1] was “binds”.

For the molecule KPR[pS]PDHVL [MACF1 phosphopeptide KPRsPDHVL], the binding result in assay [2] was “binds”.

Turning to AVIHQ[pS]LGL (From Protein CNPPD1, UniProt Q9BV87) [AVIHQsLGL], the binding result in assay [1] is listed as “binds”.

In the case of RPKLS[pS]PAL [EP300 phosphopeptide RPKLSsPAL], the binding result in assay [3] is reported as “binds”.

ALD[pS]GASLLHL [ALDsGASLLHL]: in assay [1], the binding result is “binds”.

B7: RQIsFKAEV (peptide)
peptide: RQI[pS]FKAEV
notes: From Ubiquitin-conjugating enzyme E2 J1, UniProt Q9Y385
Regarding B7, in assay [1], the binding result was “binds”.

As for KPA[pS]PARRL [MAP1A phosphopeptide KPAsPARRL], in assay [2], the binding result is “binds”.

For the molecule RPN[pS]PSPTAL [TLK1 phosphopeptide RPNsPSPTAL], in assay [2], the binding result is recorded as “binds”.

B8: KLFsPSKEAEL (peptide)
peptide: KLF[pS]PSKEAEL
notes: From Protein cramped-like, UniProt Q96RY5
In the case of B8, the binding result in assay [1] was “binds”.

B9: ILDsGIYRI (peptide)
peptide: ILD[pS]GIYRI
notes: From Hermansky-Pudlak syndrome 5 protein, UniProt Q9UPZ3
Turning to B9, the binding result in assay [1] is “binds”.

EPKRR[pS]ARL [HMGN1 phosphopeptide EPKRRsARL]: the binding result in assay [3] is “binds”.

Consider ALG[pS]RESLATI [ALGsRESLATI], for which the binding result in assay [1] is reported as “binds”.

SPK[pS]PGLKA [RCSD1 phosphopeptide SPKsPGLKA]: the binding result in assay [2] is on record as “binds”.

As for RSE[pS]KDRKL [IP6K1 phosphopeptide RSEsKDRKL], in assay [2], the binding result is reported as “binds”.

As for KLMAPDI[pS]L [KLMAPDIsL], in assay [1], the binding result is on record as “binds”.

RPPPPPD[pT]PP [KLF2 phosphopeptide RPPPPPDtPP]: the binding result in assay [2] is on record as “binds”.

Turning to KMD[pS]FLDMQL [KMDsFLDMQL], the binding result in assay [1] is on record as “binds”.

RPR[pS]PAARL [ZNF219 phosphopeptide RPRsPAARL]: in assay [3], the binding result is listed as “binds”.

B10: KAKsPAPGL (peptide)
peptide: KAK[pS]PAPGL
notes: From Nuclear receptor corepressor 2, UniProt Q9Y618
On to B10, for which the binding result in assay [1] is recorded as “binds”.

For SPSTSRSGG[pS]SRL [C1orf63 phosphopeptide SPSTSRSGGsSRL], the binding result in assay [3] is listed as “binds”.

B11: MLAEsPSVPRL (peptide)
peptide: MLAE[pS]PSVPRL
notes: From Putative uncharacterized protein, UniProt Q8WUC7
Turning to B11, the binding result in assay [1] is “binds”.

As to RRS[pS]LDAEIDSL [LPP phosphopeptide RRSsLDAEIDSL], in assay [3], the binding result was “binds”.

KVL[pS]TEEMEL (From Protein FAM128B, UniProt Q6NZ67) [KVLsTEEMEL]: in assay [1], the binding result is given as “binds”.

With YQR[pS]FDEVEGVF [YQRsFDEVEGVF], in assay [4], the binding result was “binds”.

As to YQR[pS]FDEVEGV [GIGYF2 phosphopeptide YQRsFDEVEGV], the binding result in assay [3] is recorded as “binds”.

For the molecule DS[pS]EEKFL (From Statherin (saliva), UniProt P02808) [DSsEEKFL], the binding result in assay [1] is reported as “binds”.

As for GGSFGGRSSG[pS]P (From HNRNPA3, UniProt P51991) [GGSFGGRSSGsP], in assay [1], the binding result was “binds”.

On to KPP[pS]PEHQSL [MORC2 phosphopeptide KPPsPEHQSL], for which the binding result in assay [2] is “binds”.

For RPH[pS]PEKAF [C17orf85 phosphopeptide RPHsPEKAF], in assay [2], the binding result was “binds”.
